T1: ComL (Neisseria meningitidis MC58, UniProt Q9K0B1 17-267)
T1 sequence: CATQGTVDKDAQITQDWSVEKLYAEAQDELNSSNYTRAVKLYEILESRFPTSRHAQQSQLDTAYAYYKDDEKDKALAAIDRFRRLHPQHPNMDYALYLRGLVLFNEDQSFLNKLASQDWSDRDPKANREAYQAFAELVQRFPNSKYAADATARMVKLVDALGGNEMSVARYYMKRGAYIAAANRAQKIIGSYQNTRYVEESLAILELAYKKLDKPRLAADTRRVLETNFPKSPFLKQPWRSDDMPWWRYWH


Target: T1, ComL
Assay: EMSA; 5 mM Mg2+; EMSA: 4.5 fmol DNA in 10 µl; 10% glycerol, 5 mM MgCl2, 0.02 mg/ml BSA, 1 mM DTT, with half volume of protein in 50 mM NaH2PO4, 300 mM NaCl, pH 8.0, 0.1% DDM (final about 25 mM phosphate, 150 mM NaCl, 0.05% DDM); 37 °C, 15 min; 6% PAGE Tris/glycine/EDTA
Details: protein: recombinant, tags: C-terminal 6xHis, label: 5'-32P

Row | Binder | apparent K (half saturation) [nM] | apparent K (half saturation) (blunt) [nM]
1 | HH10 ssDNA without DUS (ssDNA) DNA: AACAACAACAAAAGGCCTGTCATCCAACTTCCGGACAGTAAACAACAACAAC | 926 | –
2 | HH10/HH11 dsDNA without DUS (dsDNA) DNA 1: AACAACAACAAAAGGCCTGTCATCCAACTTCCGGACAGTAAACAACAACAAC DNA 2: GTTGTTGTTGTTTACTGTCCGGAAGTTGGATGACAGGCCTTTTGTTGTTGTT | – | 467

Reference: paper PMC3140584, “Structure–function relationships of the competence lipoprotein ComL and SSB in meningococcal transformation”
